The text below walks through data of the supplement of paper PMC5998384.

The test system of data set [1] is HeLa Kyoto. The experiment in a line: solubility in G1/S (NP-40 vs SDS abundance) (log2 ratio); higher = more soluble. The following applies: cell cycle stage: G1/S.
Data set [2] relates to HeLa Kyoto. The experiment in a line: thermal stability score vs G1/S (z-score of summed log2 fold changes over temperatures); higher = more thermally stable than in G1/S.
For data set [3], the system named is HeLa Kyoto. The experiment in a line: melting temperature (median over replicates), in situ; higher = more thermally stable.
The test system of data set [4] is HeLa Kyoto. The experiment in a line: solubility change mitosis vs G1/S (difference of NP-40 vs SDS log2 ratios) (log2 ratio difference); higher = more soluble in mitosis.
Where [5] appears, read: cell cycle stage: early G1 (4.5 h after nocodazole release).
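For melting temperature (median over replicates), in situ in this document: HeLa Kyoto cells synchronized by double thymidine or nocodazole block, proteins quantified by TMT10plex mass spectrometry, three independent biological replicates.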
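For solubility change mitosis vs G1/S (difference of NP-40 vs SDS log2 ratios) in this document: synchronized HeLa Kyoto cells (double thymidine block for G1/S, nocodazole release for mitosis), protein amounts in NP-40 versus SDS lysates quantified by mass spectrometry, three biological replicates.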
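For solubility in G1/S (NP-40 vs SDS abundance) in this document: HeLa Kyoto cells arrested at G1/S by double thymidine block, proteins quantified by TMT10plex mass spectrometry in mild NP-40 versus SDS extracts, three biological replicates.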
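For thermal stability score vs G1/S (z-score of summed log2 fold changes over temperatures) in this document: synchronized HeLa Kyoto cells, proteins quantified by TMT10plex mass spectrometry, three biological replicates, mitosis taken 0.5 h after nocodazole release, G1/S directly after double thymidine block.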

MAP7D1, sequence (chain, as listed by the source): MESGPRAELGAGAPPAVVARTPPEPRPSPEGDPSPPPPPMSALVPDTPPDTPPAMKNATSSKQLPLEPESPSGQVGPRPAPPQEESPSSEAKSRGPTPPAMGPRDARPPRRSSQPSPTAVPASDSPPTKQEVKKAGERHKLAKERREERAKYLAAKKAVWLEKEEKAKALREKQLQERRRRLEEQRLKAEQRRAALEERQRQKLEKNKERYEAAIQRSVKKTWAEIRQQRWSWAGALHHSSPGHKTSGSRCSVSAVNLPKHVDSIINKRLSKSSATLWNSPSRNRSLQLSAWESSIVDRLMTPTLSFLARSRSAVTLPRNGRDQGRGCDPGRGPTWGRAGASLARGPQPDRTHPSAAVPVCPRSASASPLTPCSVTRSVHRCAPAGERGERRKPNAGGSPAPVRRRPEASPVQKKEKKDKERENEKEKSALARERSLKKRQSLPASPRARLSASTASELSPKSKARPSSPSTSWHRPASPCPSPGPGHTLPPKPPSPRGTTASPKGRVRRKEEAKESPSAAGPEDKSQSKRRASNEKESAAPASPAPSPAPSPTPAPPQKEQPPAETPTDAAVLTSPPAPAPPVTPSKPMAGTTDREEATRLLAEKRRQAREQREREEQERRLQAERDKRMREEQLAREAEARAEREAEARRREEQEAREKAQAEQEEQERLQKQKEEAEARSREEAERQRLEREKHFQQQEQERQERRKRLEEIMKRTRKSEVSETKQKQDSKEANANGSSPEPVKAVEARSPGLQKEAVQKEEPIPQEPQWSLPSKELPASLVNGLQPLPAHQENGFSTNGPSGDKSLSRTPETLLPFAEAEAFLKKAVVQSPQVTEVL

In the case of “MANMQGLVERLERAVSRLESLSAESHRPPGNCGEVNGVIAGVAPSVEAFDKLMDSMVAEFLKNSRILAGDVETHAEMVHSAFQAQRAFLLMASQYQQPHENDVAALLKPISEKIQEIQTFRERNRGSNMFNHLSAVSESIPALGWIAVSPKPGPYVKEMNDAATFYTNRVLKDYKHSDLRHVDWVKSYLNIWSELQAYIKEHHTTGLTWSKTGPVASTVSAFSVLSSGPGLPPPPPPLPPPGPPPLFENEGKKEESSPSRSALFAQLNQGEAITKGLRHVTDDQKTYKNPSLRAQGGQTQSPTKSHTPSPTSPKSYPSQKHAPVLELEGKKWRVEYQEDRNDLVISETELKQVAYIFKCEKSTIQIKGKVNSIIIDNCKKLGLVFDNVVGIVEVINSQDIQIQVMGRVPTISINKTEGCHIYLSEDALDCEIVSAKSSEMNILIPQDGDYREFPIPEQFKTAWDGSKLITEPAEIMA [CAP2]”, the “solubility in G1/S (log2)” value in the data set with HeLa Kyoto [1] turned out to be 0.136. In addition, the thermal stability score with HeLa Kyoto [2] (setting [5]) was -1.54; in the data set on HeLa Kyoto [2] (cell cycle stage: mitosis), -2.12. In addition, the figures for the melting temperature in the data set with HeLa Kyoto [3] (cell cycle stage: G1/S) and in the data set with HeLa Kyoto [3] (cell cycle stage: mitosis) were 51.3 °C and 50.3 °C, respectively. In addition, the “solubility change mitosis (log2)” value in the data set with HeLa Kyoto [4] is -0.179.
“MANNSPALTGNSQPQHQAAAAAAQQQQQCGGGGATKPAVSGKQGNVLPLWGNEKTMNLNPMILTNILSSPYFKVQLYELKTYHEVVDEIYFKVTHVEPWEKGSRKTAGQTGMCGGVRGVGTGGIVSTAFCLLYKLFTLKLTRKQVMGLITHTDSPYIRALGFMYIRYTQPPTDLWDWFESFLDDEEDLDVKAGGGCVMTIGEMLRSFLTKLEWFSTLFPRIPVPVQKNIDQQIKTRPRKIKKDGKEGAEEIDRHVERRRSRSPRRSLSPRRSPRRSRSRSHHREGHGSSSFDRELEREKERQRLEREAKEREKERRRSRSIDRGLERRRSRSRERHRSRSRSRDRKGDRRDRDREREKENERGRRRDRDYDKERGNEREKERERSRERSKEQRSRGEVEEKKHKEDKDDRRHRDDKRDSKKEKKHSRSRSRERKHRSRSRSRNAGKRSRSRSKEKSSKHKNESKEKSNKRSRSGSQGRTDSVEKSKKREHSPSKEKSRKRSRSKERSHKRDHSDSKDQSDKHDRRRSQSIEQESQEKQHKNKDETV [PRPF38B]”: in the data set on HeLa Kyoto [1], the “solubility in G1/S (log2)” value was -0.989. Also, the thermal stability score in the data set with HeLa Kyoto [2] (setting [5]) was 0.848; in the data set on HeLa Kyoto [2] (cell cycle stage: mitosis), 1.5. Also, the melting temperature in the data set on HeLa Kyoto [3] (cell cycle stage: G1/S) came out at 50 °C; in the data set with HeLa Kyoto [3] (cell cycle stage: mitosis) it was 50.6 °C. Further, the “solubility change mitosis (log2)” value in the data set with HeLa Kyoto [4] was found to be 0.407.
As for “MANPKEKTAMCLVNELARFNRVQPQYKLLNERGPAHSKMFSVQLSLGEQTWESEGSSIKKAQQAVANKALTESTLPKPVQKPPKSNVNNNPGSITPTVELNGLAMKRGEPAIYRPLDPKPFPNYRANYNFRGMYNQRYHCPVPKIFYVQLTVGNNEFFGEGKTRQAARHNAAMKALQALQNEPIPERSPQNGESGKDVDDDKDANKSEISLVFEIALKRNMPVSFEVIKESGPPHMKSFVTRVSVGEFSAEGEGNSKKLSKKRAATTVLQELKKLPPLPVVEKPKLFFKKRPKTIVKAGPEYGQGMNPISRLAQIQQAKKEKEPDYVLLSERGMPRRREFVMQVKVGNEVATGTGPNKKIAKKNAAEAMLLQLGYKASTNLQDQLEKTGENKGWSGPKPGFPEPTNNTPKGILHLSPDVYQEMEASRHKVISGTTLGYLSPKDMNQPSSSFFSISPTSNSSATIARELLMNGTSSTAEAIGLKGSSPTPPCSPVQPSKQLEYLARIQGFQAALSALKQFSEQGLDPIDGAMNIEKGSLEKQAKHLREKADNNQAPPGSIAQDCKKSNSAV [STAU2]”, the “solubility in G1/S (log2)” value in the data set on HeLa Kyoto [1] is -0.227. Further, the thermal stability score in the data set on HeLa Kyoto [2] (setting [5]) came out at 0.426; in the data set on HeLa Kyoto [2] (cell cycle stage: mitosis) it was 1.69. In addition, the values for the melting temperature in the data set on HeLa Kyoto [3] (cell cycle stage: G1/S) and in the data set with HeLa Kyoto [3] (cell cycle stage: mitosis) were 49.1 °C and 50.3 °C, respectively. Besides, the “solubility change mitosis (log2)” value in the data set on HeLa Kyoto [4] is 0.169.
Turning to “MANRGPAYGLSREVQQKIEKQYDADLEQILIQWITTQCRKDVGRPQPGRENFQNWLKDGTVLCELINALYPEGQAPVKKIQASTMAFKQMEQISQFLQAAERYGINTTDIFQTVDLWEGKNMACVQRTLMNLGGLAVARDDGLFSGDPNWFPKKSKENPRNFSDNQLQEGKNVIGLQMGTNRGASQAGMTGYGMPRQIL [TAGLN2]”, in the data set with HeLa Kyoto [1], the “solubility in G1/S (log2)” value was 0.348. For the same substance, the thermal stability score in the data set with HeLa Kyoto [2] (setting [5]) was -1.52; in the data set with HeLa Kyoto [2] (cell cycle stage: mitosis), -1.77. For the same substance, the melting temperature amounted to 50.9 °C with HeLa Kyoto [3] (cell cycle stage: G1/S) and 51.7 °C in the data set on HeLa Kyoto [3] (cell cycle stage: mitosis). Moreover, the “solubility change mitosis (log2)” value in the data set with HeLa Kyoto [4] stood at 0.461.
As for “MANRTVKDAHSIHGTNPQYLVEKIIRTRIYESKYWKEECFGLTAELVVDKAMELRFVGGVYGGNIKPTPFLCLTLKMLQIQPEKDIIVEFIKNEDFKYVRMLGALYMRLTGTAIDCYKYLEPLYNDYRKIKSQNRNGEFELMHVDEFIDELLHSERVCDIILPRLQKRYVLEEAEQLEPRVSALEEDMDDVESSEEEEEEDEKLERVPSPDHRRRSYRDLDKPRRSPTLRYRRSRSRSPRRRSRSPKRRSPSPRRERHRSKSPRRHRSRSRDRRHRSRSKSPGHHRSHRHRSHSKSPERSKKSHKKSRRGNE [PRPF38A]”, the “solubility in G1/S (log2)” value in the data set with HeLa Kyoto [1] was -1.32. Moreover, the thermal stability score with HeLa Kyoto [2] (setting [5]) was -0.0926; in the data set on HeLa Kyoto [2] (cell cycle stage: mitosis) it was 1.13. Moreover, the figures for the melting temperature with HeLa Kyoto [3] (cell cycle stage: G1/S) and with HeLa Kyoto [3] (cell cycle stage: mitosis) were 49 °C and 48.6 °C, respectively. For the same substance, the “solubility change mitosis (log2)” value in the data set with HeLa Kyoto [4] amounted to 0.372.
As for “MANVPWAEVCEKFQAALALSRVELHKNPEKEPYKSKYSARALLEEVKALLGPAPEDEDERPEAEDGPGAGDHALGLPAEVVEPEGPVAQRAVRLAVIEFHLGVNHIDTEELSAGEEHLVKCLRLLRRYRLSHDCISLCIQAQNNLGILWSEREEIETAQAYLESSEALYNQYMKEVGSPPLDPTERFLPEEEKLTEQERSKRFEKVYTHNLYYLAQVYQHLEMFEKAAHYCHSTLKRQLEHNAYHPIEWAINAATLSQFYINKLCFMEARHCLSAANVIFGQTGKISATEDTPEAEGEVPELYHQRKGEIARCWIKYCLTLMQNAQLSMQDNIGELDLDKQSELRALRKKELDEEESIRKKAVQFGTGELCDAISAVEEKVSYLRPLDFEEARELFLLGQHYVFEAKEFFQIDGYVTDHIEVVQDHSALFKVLAFFETDMERRCKMHKRRIAMLEPLTVDLNPQYYLLVNRQIQFEIAHAYYDMMDLKVAIADRLRDPDSHIVKKINNLNKSALKYYQLFLDSLRDPNKVFPEHIGEDVLRPAMLAKFRVARLYGKIITADPKKELENLATSLEHYKFIVDYCEKHPEAAQEIEVELELSKEMVSLLPTKMERFRTKMALT [KIF1BP]”, the “solubility in G1/S (log2)” value in the data set on HeLa Kyoto [1] was 0.141. Also, the figures for the thermal stability score in the data set on HeLa Kyoto [2] (setting [5]) and with HeLa Kyoto [2] (cell cycle stage: mitosis) were 0.769 and 2.03, respectively. Further, the melting temperature with HeLa Kyoto [3] (cell cycle stage: G1/S) and in the data set with HeLa Kyoto [3] (cell cycle stage: mitosis) was 49 °C each time. The “solubility change mitosis (log2)” value with HeLa Kyoto [4] was -0.161.
For MAP7D1, in the data set with HeLa Kyoto [1], the “solubility in G1/S (log2)” value amounted to 0.337. Also, the thermal stability score in the data set with HeLa Kyoto [2] (setting [5]) is -1.09; with HeLa Kyoto [2] (cell cycle stage: mitosis), -4.66. Besides, the melting temperature stood at 52.8 °C with HeLa Kyoto [3] (cell cycle stage: G1/S) and 51.2 °C in the data set on HeLa Kyoto [3] (cell cycle stage: mitosis). Further, in the data set with HeLa Kyoto [4], the “solubility change mitosis (log2)” value came to 0.536.
